From patent US20250026813A1 (published 2025)
Positions count from the first letter of the chain named.

How the values were obtained:
[1] = target: T1, S2 subunit of the SARS-CoV-2 spike protein (Sino Biological 40590-V08B), His tag (SARS-CoV-2, UniProt P0DTC2 686-1213)
T1 construct: domain: S2 subunit

[2] = target: SARS-CoV-2 spike protein receptor binding domain (isolated RBD) (SARS-CoV-2, UniProt P0DTC2 319-541)

B1: IMPI-029 (antibody, V domains shown)
VH: EVQLVESGGGLIQPGGSLRLSCAASGVTVSSNYMNWVRQAPGKGLEWVSVIYSGGSTYYADSVKGRFTISRDNSKNTLFLQMNSLRAEDSAVYYCARDLGPYGVDVWGQGTTVTVSS
VL: DIQLTQSPSFLSASVGDRVTITCWASQGISSYLAWYQQKPGKAPKLLIYAASTLQSGVPSRFSGSGSGTEFTLTISSLQPEDFATYYCQELNSYPLTFGQGTRLEIK
Q: B1 was tested. Which “HTRF deltaF” value [1] did it give?
A: 4.1 deltaF

B2: IMPI-017 (antibody, V domains shown)
VH: B1 VH with S25A, V27L, A40V, F79Y, S90T, P101T, Y102L, V104M
VL: B1 VL with S31T, E90Q, P95L, L96P, R103K, L104V
Q: Which results are given for B2?
A: Kd [2]: 1.87 nM; koff [2]: 0.000976 s⁻¹; kon [2]: 522000 M⁻¹ s⁻¹

B3: IMPI-047 (antibody, V domains shown)
VH: B1 VH with V27F, F79Y, A87T, S90T, G100V, P101A, V104M
VL: B1 VL with L46V, E90L, Y94N, Q100G, R103K, L104V
Q: B3 was tested. Which “HTRF deltaF” value [1] did it give?
A: 4.3 deltaF

B4: IMPI-029 (antibody, V domains shown)
VH: B1 VH
VL: B1 VL
Q: B4 was tested. Which Kd [2] did it give?
A: 0.195 nM

Q: And the koff [2]?
A: 0.000157 s⁻¹

Q: And the kon [2]?
A: 808000 M⁻¹ s⁻¹

B5: IMPI-037 (antibody, V domains shown)
VH: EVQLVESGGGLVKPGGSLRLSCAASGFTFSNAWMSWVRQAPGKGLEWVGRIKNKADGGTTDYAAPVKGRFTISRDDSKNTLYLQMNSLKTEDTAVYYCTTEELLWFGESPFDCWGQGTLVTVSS
VL: B1 VL with S30N, A84T, E90Q, L91F, S93D, L96R, Q100P, R103K, L104V
Q: What does the source list for B5?
A: Kd [2]: 9.28 nM; koff [2]: 0.0232 s⁻¹; kon [2]: 2.5e+06 M⁻¹ s⁻¹

B6: IMPI-047 (antibody, V domains shown)
VH: B1 VH with V27F, F79Y, A87T, S90T, G100V, P101A, V104M
VL: B1 VL with L46V, E90L, Y94N, Q100G, R103K, L104V
Q: For B6, which Kd [2] is on record?
A: 2.38 nM

Q: What about the koff [2] of the same binder?
A: 0.000878 s⁻¹

Q: And the kon [2]?
A: 368000 M⁻¹ s⁻¹

B7: IMPI-005 (antibody, V domains shown)
VH: B1 VH with V27F
VL: B1 VL
Q: For B7, which Kd [2] is on record?
A: 3.09 nM

Q: What about the koff [2] of the same binder?
A: 0.0071 s⁻¹

Q: What about the kon [2] of the same binder?
A: 2.3e+06 M⁻¹ s⁻¹

B8: IMPI-021 (antibody, V domains shown)
VH: B1 VH with N35S, Y58F, F79Y, S90T, G100S, P101Y, V104M
VL: B1 VL with R61K, E90Q, L96C, T97S, R103K
Q: Which results are given for B8?
A: Kd [2]: 8.08 nM; koff [2]: 0.00443 s⁻¹; kon [2]: 548000 M⁻¹ s⁻¹

B9: IMPI-005 (antibody, V domains shown)
VH: B1 VH with V27F
VL: B1 VL
Q: B9 was tested. Which “HTRF deltaF” value [1] did it give?
A: -1.8 deltaF

B10: IMPI-060 (antibody, V domains shown)
VH: B1 VH with N35S, Y58F, F79Y, S90T, G100S, P101Y, V104M
VL: B1 VL with R61K, E90Q, L96S, T97S, R103K
Q: What does the source list for B10?
A: Kd [2]: 59.2 nM; koff [2]: 0.0277 s⁻¹; kon [2]: 469000 M⁻¹ s⁻¹

B11: IMPI-056 (antibody, V domains shown)
VH: B1 VH with V27L, G44K, Y58F, K64R
VL: B1 VL with E90Q
Q: For B11, which Kd [2] is on record?
A: 0.44 nM

B12: IMPI-021 (antibody, V domains shown)
VH: B1 VH with N35S, Y58F, F79Y, S90T, G100S, P101Y, V104M
VL: B1 VL with R61K, E90Q, L96C, T97S, R103K
Q: B12 was tested. Which “HTRF deltaF” value [1] did it give?
A: -0.3 deltaF

B13: IMPI-060 (antibody, V domains shown)
VH: B1 VH with N35S, Y58F, F79Y, S90T, G100S, P101Y, V104M
VL: B1 VL with R61K, E90Q, L96S, T97S, R103K
Q: For B13, which “HTRF deltaF” value [1] is on record?
A: 6 deltaF

B14: IMPI-038 (antibody, V domains shown)
VH: QVQLVESGGGVVQPGRSLRLSCAASGFTFSSYGMHWVRQAPGKGLEWVAVISYDGSDKYYADSVKGRFTISRDNSKNTLYLQMNSLRAEDTAVYYCAKTVAGYYYYYYGMDVWGQGTTVTVSS
VL: DIQMTQSPSSVSASVGDRVTVTCRASQDISSWLAWFQQKPGKAPKFLIYDASNLENGVPSRFSGSGSGTDFTLTISSLQPEDFATYYCQQAKSFPWTFGQGTKVEIN
Q: For B14, which Kd [2] is on record?
A: 2.92 nM

B15: IMPI-006 (antibody, V domains shown)
VH: QLQLQESGPGLVKPSETLSLTCTVSGGSISNSNYYWGWIRQPPGKGLEWIGSIYYSGRTYYNPSLKSRVTISVDTSKNQFSLKLSSVTAADTAVYYCARMGLLWFGEFYGMDVWGQGTTVTVSS
VL: DIQMTQSPSSLSASVGDRVTITCRASQGISSWLAWYQQKPEKAPKSLIYDASSLQRGVPSRFSGSGSGTDFTLTISSLQPEDFASYYCQQYNSYPLTFGGGTRVEIK
Q: How did the Kd [2] turn out when B15 was run?
A: 0.88 nM

Q: What about the koff [2] of the same binder?
A: 8.19 s⁻¹

Q: What about the kon [2] of the same binder?
A: 9.3e+09 M⁻¹ s⁻¹

B16: IMPI-059 (antibody, V domains shown)
VH: EVQLVESGGGLIQPGGSLRLSCAASGFTVSSIYMSWVRQAPGKGLEWVSIIYSRGSTDYADSVKGRFTISRDISKNTLYLQMNSLRAEDTAVYYCARDGTMVRGVHAFDIWGQGTMVTVSS
VL: DIQMTQSPPSLSASIGDRVTITCQASQDISNYLNWYQQKPGKAPKLLIYDASNLETGVPSRFSGSGSGTDFTLTISNLQPEDIVTYYCQQYDNLPSSFGQGTKLEIK
Q: What does the source list for B16?
A: Kd [2]: 0.646 nM; koff [2]: 0.00426 s⁻¹; kon [2]: 6.59e+06 M⁻¹ s⁻¹

B17: IMPI-063 (antibody, V domains shown)
VH: EVQLVESGGGVVRPGGSLRLSCAASGFTFDDYGMSWVRQAPGKGLEWVSGIYWNGGSTGYADSVKGRFTISRDNAKNSLYLQMNSLRAEDMALYYCARGVGATDYWGQGTLVTVSS
VL: EIVLTQSPGTLSLSSGERATLACRASESVRGSFLAWYQQKPGQAPRLLIYGASRRATGIPDRFSGSGSGTDFTLTISRLEPEDFAVYYCQQYGNSPMCSFGQGTKLEIK
Q: For B17, which “HTRF deltaF” value [1] is on record?
A: 411 deltaF

B18: IMPI-024 (antibody, V domains shown)
VH: EVQLVQSGAEVKKPGESLKISCKGSGYSFTSYWIGWVRQMPGKGLEWMGIIYPGDSDTRYSPSFQGQVTISADKSISTAYLQWSSLKASDTAMYYCVRSYNWNYFDYWGQGTLVTVSS
VL: AIQLTQSPSSLSASVGDRVTITCRASQGISSGLAWYQQKAGKAPKLLIYDVSSLESGVPSRFSGSGSGTDFTLTISSLQPEDFATYYCQQFLSYPWTFGQGTKVEIK
Q: Which “HTRF deltaF” value [1] does the source give for B18 here?
A: -15.4 deltaF

B19: IMPI-024 (antibody, V domains shown)
VH: B18 VH
VL: B18 VL
Q: Which results are given for B19?
A: Kd [2]: 0.633 nM; koff [2]: 0.00134 s⁻¹; kon [2]: 2.12e+06 M⁻¹ s⁻¹

B20: IMPI-027 (antibody, V domains shown)
VH: QVQLQESGPGLVKPSQTLSLTCTVSGGSISSYGYYWNWIRQHPGKGLEWIGYIYYSGSTYYNPSLKSRVTISVDTSKNQLSLRLNSVSAADTAVYYCARDFGGNSNYFDYWGQGTLVTVSS
VL: B18 VL with A25T, G32A, A40P, V51A, L92N, W96L, Q100G
Q: With B20 as the binder, how does the Kd [2] read?
A: 4.06 nM

Q: And the koff [2]?
A: 26.3 s⁻¹

Q: What about the kon [2] of the same binder?
A: 6.48e+09 M⁻¹ s⁻¹

B21: IMPI-068 (antibody, V domains shown)
VH: QVQLVESGGDVVQPGRSLRLSCAASGFTFSRYGMHWVRQAPGKGLEWVAVISYDGSDKYYADSVKGRFTISRDNSKNTLYLQMNSLRAEDTAVYYCAKQLPLYYYYYGMDVWGQGTTVTVSS
VL: B18 VL with G32A, A40P, K45N, V51A, L92N, S93I, W96H, Q100P, E105D
Q: Which Kd [2] does the source give for B21 here?
A: 40.5 nM

B22: IMPI-033 (antibody, V domains shown)
VH: B20 VH with N37S, I71M
VL: B18 VL with G32A, A40P, K45N, V51A, L92N, Y94S, W96L, Q100G
Q: Which results are given for B22?
A: Kd [2]: 3.37 nM; koff [2]: 0.00741 s⁻¹; kon [2]: 2.2e+06 M⁻¹ s⁻¹

B23: IMPI-054 (antibody, V domains shown)
VH: EVQLVESGGGLIQPGGSLRLSCAASGLTVSSNYMSWVRQAPGKGLEWVSIIYSGGSTYYADSVKGRFTISRDNSKNTLYLQMNSLRAEDTAVYYCARLGGYYYYGMDVWGQGTTVTVSS
VL: DIQMTQSPSSLSASVGERVTITCQASQDIRNYLNWYQKKPGKAPKLLIYDSSNLETGVPSRFSGSGSGTDFTFTISSLQPEDIATYYCQQYDNLPITFGQGTRLEIK
Q: B23 was tested. Which “HTRF deltaF” value [1] did it give?
A: 15.8 deltaF

B24: IMPI-054 (antibody, V domains shown)
VH: B23 VH
VL: B23 VL
Q: For B24, which Kd [2] is on record?
A: 1.11 nM

Q: And the koff [2]?
A: 0.000627 s⁻¹

Q: What about the kon [2] of the same binder?
A: 564000 M⁻¹ s⁻¹

B25: IMPI-042 (antibody, V domains shown)
VH: B23 VH
VL: B23 VL with S65G
Q: How did the Kd [2] turn out when B25 was run?
A: 1.15 nM

Q: What about the koff [2] of the same binder?
A: 0.000617 s⁻¹

Q: What about the kon [2] of the same binder?
A: 536000 M⁻¹ s⁻¹

B26: IMPI-042 (antibody, V domains shown)
VH: B23 VH
VL: B23 VL with S65G
Q: How did the “HTRF deltaF” value [1] turn out when B26 was run?
A: 1.6 deltaF

B27: IMPI-055 (antibody, V domains shown)
VH: QVQLVQSGAEVKKPGASVKVSCKASGYTFTSYDINWVRQATGQGLEWMGWMNPNSGNTGYAQKFQGRVTMTRDTSINTAYMELSSLRSEDTAVYFCARGGRYCSDVTCYSGEPFDYWGQGTLVTVSS
VL: EIMLTQSPDFQSVTPKEKVTITCRASQSIGSSLHWYQQKPDQSPKLLIKFASQSISGVPSRFSGSGSGTDFTLTINSLEAEDAAAYYCHQSSSLPHTFGPGTKVEIK
Q: How did the Kd [2] turn out when B27 was run?
A: 0.959 nM

Q: And the koff [2]?
A: 0.00264 s⁻¹

Q: And the kon [2]?
A: 2.75e+06 M⁻¹ s⁻¹
